The target of data set [1] is T1, BAZ1A-PHD (human, UniProt Q9NRL2 1137-1202).
T1 sequence: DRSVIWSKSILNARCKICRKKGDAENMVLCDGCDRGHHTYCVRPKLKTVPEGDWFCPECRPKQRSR
Description: BLI. Conditions: n=6; value from figure text layer, assigned to the nucleosome panel; BLI: 50 mM Tris pH 7.5, 150 mM NaCl, 1 mM TCEP, 0.5% BSA, 0.01% Tween-20, 23 C; FP: 20 mM Tris pH 7.5, 150 mM NaCl, 1% glycerol, 0.5 mg/mL BSA, 0.05% Triton ….

The target of data set [2] is T1, BAZ1A-PHD. Description: HDX-MS; 30 uM protein, 100 uM DNA; C-terminal region protected, incl. K1181 and K1183; BLI: 50 mM Tris pH 7.5, 150 mM NaCl, 1 mM TCEP, 0.5% BSA, 0.01% Tween-20, 23 C; FP: 20 mM Tris pH 7.5, 150 mM NaCl, 1% glycerol, 0.5 mg/mL BSA, 0.05% Triton X-100, RT, 50 nM probe; HDX: PBS pH 7.2, 5 C. Particulars: protein: recombinant; tags: His6-FLAG N-terminal, removed (TEV/thrombin) for BLI; HDX construct tag-free with extra non-native residues; blunt.

Data set [3] addresses T2, BAZ1A-PHD K1181A/K1183Y (KAKY) (human, UniProt Q9NRL2 1137-1202, K1181A;K1183Y).
T2 sequence: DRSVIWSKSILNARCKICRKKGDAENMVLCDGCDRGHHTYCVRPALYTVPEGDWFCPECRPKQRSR
Put plainly: BLI; BLI: 50 mM Tris pH 7.5, 150 mM NaCl, 1 mM TCEP, 0.5% BSA, 0.01% Tween-20, 23 C; FP: 20 mM Tris pH 7.5, 150 mM NaCl, 1% glycerol, 0.5 mg/mL BSA, 0.05% Triton X-100, RT, 50 nM probe; HDX: PBS pH 7.2, 5 C. Conditions: protein: recombinant; tags: His6-FLAG N-terminal, removed for BLI; label: 5' biotin; blunt. A general note: Biolayer interferometry detects binding as a change in optical thickness at a sensor tip.

The next data set addresses T3, BAZ1B-PHD (UniProt Q9UIG0 1172-1237).
T3 sequence: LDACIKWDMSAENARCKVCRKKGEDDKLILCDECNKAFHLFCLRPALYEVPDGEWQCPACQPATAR
The data set is described as above. Particulars: protein: recombinant; tags: His6-FLAG N-terminal, removed for BLI; label: 5' biotin; blunt.

For another data set, the target named is T4, BAZ1B-PHD A1227K/Y1229K (UniProt Q9UIG0 1172-1237, A1217K;Y1219K).
T4 sequence: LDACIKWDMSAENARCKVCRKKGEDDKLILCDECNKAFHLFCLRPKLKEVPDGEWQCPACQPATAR
The description is as above. Conditions: protein: recombinant; tags: His6-FLAG N-terminal, removed for BLI; label: 5' biotin; blunt.

In a further data set the target is T5, dAcf1-PHD(1) (Drosophila, UniProt Q9V9T4 1051-1115).
T5 sequence: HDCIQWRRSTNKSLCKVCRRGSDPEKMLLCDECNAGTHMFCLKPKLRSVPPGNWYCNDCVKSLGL
The data set is described as above. Conditions: protein: recombinant; tags: His6-FLAG N-terminal, removed for BLI; label: 5' biotin; blunt.

The target of data set [4] is T1, BAZ1A-PHD. Description: BLI; n=10; BLI: 50 mM Tris pH 7.5, 150 mM NaCl, 1 mM TCEP, 0.5% BSA, 0.01% Tween-20, 23 C; FP: 20 mM Tris pH 7.5, 150 mM NaCl, 1% glycerol, 0.5 mg/mL BSA, 0.05% Triton X-100, RT, 50 nM probe; HDX: PBS pH 7.2, 5 C. Conditions: protein: recombinant; tags: His6-FLAG N-terminal, removed (TEV/thrombin) for BLI; HDX construct tag-free with extra non-native residues; label: 5' biotin; blunt.

The target in data set [5] is T1, BAZ1A-PHD. Put plainly: competition; fluorescence polarization, 5.3 uM protein, 50 nM labeled probe; IC50 not in text; BLI: 50 mM Tris pH 7.5, 150 mM NaCl, 1 mM TCEP, 0.5% BSA, 0.01% Tween-20, 23 C; FP: 20 mM Tris pH 7.5, 150 mM NaCl, 1% glycerol, 0.5 mg/mL BSA, 0.05% Triton X-100, RT, 50 nM probe; HDX: PBS pH 7.2, 5 C. Conditions: protein: recombinant; tags: His6-FLAG N-terminal, removed (TEV/thrombin) for BLI; HDX construct tag-free with extra non-native residues; blunt. (In fluorescence polarisation assays a small probe gives low polarisation when free and higher when bound to something large.)

Data set [6] deals with T1, BAZ1A-PHD. Description: BLI; identical results to scrambled sequence; BLI: 50 mM Tris pH 7.5, 150 mM NaCl, 1 mM TCEP, 0.5% BSA, 0.01% Tween-20, 23 C; FP: 20 mM Tris pH 7.5, 150 mM NaCl, 1% glycerol, 0.5 mg/mL BSA, 0.05% Triton X-100, RT, 50 nM probe; HDX: PBS pH 7.2, 5 C. Conditions: protein: recombinant; tags: His6-FLAG N-terminal, removed (TEV/thrombin) for BLI; HDX construct tag-free with extra non-native residues; label: 5' biotin; blunt.

One may read the Kd as the equilibrium constant for the complex coming apart.

The molecule “human biotinylated mononucleosome (EpiCypher)” gave a Kd with BAZ1A-PHD [1] of 48 µM.

B1: 20 bp HDX duplex (dsDNA)
DNA 1: ACTGACTCTGGACTACTGAG
DNA 2: CTCAGTAGTCCAGAGTCAGT
For B1, the binding result in the data set with BAZ1A-PHD [2] is given as “binds”.

B2: scrambled Widom-601 145 bp duplex (dsDNA)
DNA 1: CTTGCATCGATCCGATTGAACCATCGCTCGGTGACAGCTACGTGACTTAGTGTGCCCCATCGATCCAGTTCGATCACAGGCCACCTGAGTCGAGAGTATCGACACCCAGTGAACGATCGATCCGACTCGATCGCCTCACTGCTAG
DNA 2: CTAGCAGTGAGGCGATCGAGTCGGATCGATCGTTCACTGGGTGTCGATACTCTCGACTCAGGTGGCCTGTGATCGAACTGGATCGATGGGGCACACTAAGTCACGTAGCTGTCACCGAGCGATGGTTCAATCGGATCGATGCAAG
For the molecule B2, the binding result (in data set [3]; with BAZ1B-PHD; with BAZ1B-PHD A1227K/Y1229K; with dAcf1-PHD(1)) was “no binding” each time. Further, the Kd in the data set with BAZ1A-PHD [4] was determined as 51 ± 9 µM.

B3: Widom-601 145 bp duplex, unlabeled (dsDNA)
DNA 1: ATCAGAATCCCGGTGCCGAGGCCGCTCAATTGGTCGTAGACAGCTCTAGCACCGCTTAAACGCACGTACGCGCTGTCCCCCGCGTTTTAACCGCCAAGGGGATTACTCCCTAGTCTCCAGGCACGTGTCAGATATATACATCGAT
DNA 2: ATCGATGTATATATCTGACACGTGCCTGGAGACTAGGGAGTAATCCCCTTGGCGGTTAAAACGCGGGGGACAGCGCGTACGTGCGTTTAAGCGGTGCTAGAGCTGTCTACGACCAATTGAGCGGCCTCGGCACCGGGATTCTGAT
In the case of B3, the binding result with BAZ1A-PHD [5] is listed as “binds”.

B4: Widom-601 145 bp duplex, biotinylated (dsDNA)
DNA 1: ATCAGAATCCCGGTGCCGAGGCCGCTCAATTGGTCGTAGACAGCTCTAGCACCGCTTAAACGCACGTACGCGCTGTCCCCCGCGTTTTAACCGCCAAGGGGATTACTCCCTAGTCTCCAGGCACGTGTCAGATATATACATCGAT
DNA 2: ATCGATGTATATATCTGACACGTGCCTGGAGACTAGGGAGTAATCCCCTTGGCGGTTAAAACGCGGGGGACAGCGCGTACGTGCGTTTAAGCGGTGCTAGAGCTGTCTACGACCAATTGAGCGGCCTCGGCACCGGGATTCTGAT
With B4, in the data set with BAZ1A-PHD [6], the binding result is given as “binds”.

The values are drawn from PMC5636791, “Non-canonical reader modules of BAZ1A promote recovery from DNA damage”.
